Source: patent publication EP1763578B1, “TANNASE” (priority 2004, dated 2006)

How the values were obtained:
[1] = test system: Arxula adeninivorans LS3 Tannase I (Atan1p), SEQ ID NO: 3; assay: Tannase assay with rhodanine, KM determination with tannin; type: biochemical; conditions: tannin solution 0,05-0,75 mg/ml, 15 min at 30°C; Lineweaver-Burk plot; read-out: KM-Wert (Tannin)
Procedure: (§1) Der Nachweis der Tannase mit Hilfe des Rhodanins, wurde nach einer Methode von Sharma et al. (Sharma S, Bhat TK, Dawra RK (2000) A spectrophotometric method for assay of tannase using Rhodanine. Anal. Biochem. 279: 85-89, 2000) durchgeführt.
(§2) Als Test-Kontrolle wurden 450 µl Puffer und 50 µl eingeengter Kulturüberstand zusammenpipettiert. Als Blank-Kontrolle wurden 250 µl der Substratlösung und 250 µl Puffer zusammengegeben. Diese drei verschiedenen Ansätze wurden anschließend für 5 Min bei 30°C inkubiert. […] Nach anschließender Inkubation für 5 Min bei 30°C wurden weitere 200 µl 0,5 M KOH zugegeben. Nach wiederholter Inkubation bei 30°C für 5 Min wird die Absorbtion der verschiedenen Ansätze bei 520 nm im Spektrophotometer (UV160-A/Shimadzu) gegen Wasser gemessen. Die Absorption kann nach folgender Formel berechnet werden: ΔA520nm = (ATest-ABlank)-(AKontrolle-ABlank) [formula]
(§3) Mit Hilfe einer Eichkurve wurde dann die entstandene Gallatmenge ermittelt. Einheiten/Enzym = ((μmol gebildetes Gallat/min)*(Vf))/((0, 05)) [formula] Vf = Verdünnungsfaktor 0,05 = eingesetztes Probevolumen (in Milliliter) Eine Einheit ist definiert als µmol gebildetes Gallat pro Minute.
Zur Bestimmung des KM-Wertes wurde zu je 50 µl Tannase 250 µl Tanninlösung in Konzentrationen von 0,05 mg/ml bis 0,75 mg/ml zugegeben, alles 15 Min bei 30°C inkubiert und die Tannaseaktivität wie beschrieben ermittelt. […]

[2] = molecular target: T1, Arxula adeninivorans LS3 Tannase II (Atan2p), SEQ ID NO: 4 (Blastobotrys adeninivorans, UniProt Q5GMI6); assay: as above; type: biochemical; conditions: tannin solution 0,05-0,75 mg/ml, 15 min at 30°C; Lineweaver-Burk plot; read-out: KM-Wert (Tannin)
T1 sequence (Q5GMI6 29-448): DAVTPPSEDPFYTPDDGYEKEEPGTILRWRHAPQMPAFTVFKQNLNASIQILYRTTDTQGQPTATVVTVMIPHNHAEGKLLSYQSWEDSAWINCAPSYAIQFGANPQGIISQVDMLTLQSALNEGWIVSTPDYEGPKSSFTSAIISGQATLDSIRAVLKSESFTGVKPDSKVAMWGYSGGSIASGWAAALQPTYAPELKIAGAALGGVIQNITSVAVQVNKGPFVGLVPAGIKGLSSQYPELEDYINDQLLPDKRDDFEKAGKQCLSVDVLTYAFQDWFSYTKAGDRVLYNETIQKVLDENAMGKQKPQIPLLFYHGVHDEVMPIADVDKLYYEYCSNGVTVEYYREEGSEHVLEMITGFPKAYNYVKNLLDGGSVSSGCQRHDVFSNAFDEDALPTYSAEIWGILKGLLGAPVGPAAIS
Procedure: as §1, §2, §3
Zur Bestimmung des KM-Wertes wurde zu je 50µl Tannase-Probe 250µl Tanninlösung in Konzentrationen von 0,05 mg/ml bis 0,75 mg/ml zugegeben, alles 15 Min bei 30°C inkubiert und die Tannaseaktivität gemessen. […]

[3] = substrate: CCCCCCCCCC(=O)Oc1ccc([N+](=O)[O-])cc1; assay: Lipase assay with p-nitrophenyl ester, native enzyme; type: biochemical, Arxula adeninivorans LS3; conditions: other: native lipase; pH 7.5; 30.0 °C
Procedure: (§4) Für diese Bestimmung wurde eine frische Stammlösung (3mM […] in 10 ml Propanol durch 10 Min vortexen lösen) angesetzt. Für den Messansatz wurden 850 µl 0,05 M Na-Phosphat-Puffer pH 7,5 und 100 µl der Stammlösung gemischt und anschließend 50 µl Probelösung zugegeben. Als Kontrolle wurden 900 µl Puffer und 100 µl Stammlösung zusammengegeben. Beide Ansätze wurden für 5-10 Min bei 30°C inkubiert und anschließend 1 ml Aceton zum Abstoppen der Reaktion zugegeben. Danach wurde die Absorption bei 410 nm im Spektrometer (UV160-A/Shimadzu) gegen Wasser gemessen: Die Enzymaktivität kann dann nach folgender Formel berechnet werden: Einheiten/ml Enzym = ((ΔA410nm/min Test-ΔA410nm/min Blank)*(Vf))/((14, 800)*(0, 05)) [formula] Vf = Verdünnungsfaktor 14800 I mol^-1 cm^-1= Extinktionskoeffizient von p-Nitrophenol bei 410nm (Quinn et al. 1982) 0,05 = eingesetztes Probevolumen (in Milliliter) Eine Einheit ist definiert als µmol gebildetes p-Nitrophenol pro Minute.
(§5) Da Atan2p eine sehr hohe Homologie zu Lipasen aufweist, wurde A. adeninivorans G1211/pAL-ALEU2m-ATAN2 parallel auf sekretorische Lipase-Aktivität mit p-Nitrophenyl-Caprate geprüft. Dazu erfolgte eine Anzucht in HMM + 2% Glukose bzw. HMM + 2% Xylitol, Bedingungen unter denen das native ATAN2-Gen nicht exprimiert wird, d. h. auch kein natives sekretorisches Atan2p auftritt. […]

[4] = substrate: CCCCCCCCCC(=O)Oc1ccc([N+](=O)[O-])cc1; assay: Lipase assay with p-nitrophenyl ester, recombinant enzyme; type: biochemical, Arxula adeninivorans; conditions: other: recombinant lipase; pH 7.5; 30.0 °C
Procedure: as §4, §5

## Tannin
[1]
  Km: 150 µM
[2]
  Km: 1100 µM

B1: Tannase II (Atan2p nativ, native Lipase) secreted by A. adeninivorans LS3, SEQ ID NO: 4 (Blastobotrys adeninivorans) (protein)
chain: DAVTPPSEDPFYTPDDGYEKEEPGTILRWRHAPQMPAFTVFKQNLNASIQILYRTTDTQGQPTATVVTVMIPHNHAEGKLLSYQSWEDSAWINCAPSYAIQFGANPQGIISQVDMLTLQSALNEGWIVSTPDYEGPKSSFTSAIISGQATLDSIRAVLKSESFTGVKPDSKVAMWGYSGGSIASGWAAALQPTYAPELKIAGAALGGVIQNITSVAVQVNKGPFVGLVPAGIKGLSSQYPELEDYINDQLLPDKRDDFEKAGKQCLSVDVLTYAFQDWFSYTKAGDRVLYNETIQKVLDENAMGKQKPQIPLLFYHGVHDEVMPIADVDKLYYEYCSNGVTVEYYREEGSEHVLEMITGFPKAYNYVKNLLDGGSVSSGCQRHDVFSNAFDEDALPTYSAEIWGILKGLLGAPVGPAAIS
[3]
  Km: 400 µM
  Vmax: 0,043 µmol x min^-1

B2: Tannase II (Atan2p rekombinant, rekombinante Lipase) secreted by A. adeninivorans G1211/pAL-ALEU2m-ATAN2, SEQ ID NO: 4 (Blastobotrys adeninivorans) (protein)
chain: DAVTPPSEDPFYTPDDGYEKEEPGTILRWRHAPQMPAFTVFKQNLNASIQILYRTTDTQGQPTATVVTVMIPHNHAEGKLLSYQSWEDSAWINCAPSYAIQFGANPQGIISQVDMLTLQSALNEGWIVSTPDYEGPKSSFTSAIISGQATLDSIRAVLKSESFTGVKPDSKVAMWGYSGGSIASGWAAALQPTYAPELKIAGAALGGVIQNITSVAVQVNKGPFVGLVPAGIKGLSSQYPELEDYINDQLLPDKRDDFEKAGKQCLSVDVLTYAFQDWFSYTKAGDRVLYNETIQKVLDENAMGKQKPQIPLLFYHGVHDEVMPIADVDKLYYEYCSNGVTVEYYREEGSEHVLEMITGFPKAYNYVKNLLDGGSVSSGCQRHDVFSNAFDEDALPTYSAEIWGILKGLLGAPVGPAAIS
[4]
  Km: 710 µM
  Vmax: 0,036 µmol x min^-1
